± gives the uncertainty stated by the source.
Experiment: protein stability index of a GFP-peptide fusion (yeast GPS) (PSI 1-4); higher = more stable; sorted into four equal gates, so the index is relative within each strain
Settings: pdr5∆
Procedure, shortened: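 Plasmids in a pooled yeast library fused tiled 17-residue yeast protein peptides downstream of GFP and also expressed Cherry. Mid-log cultures grown without leucine were sorted into four equal gates by GFP/Cherry fluorescence ratio. Each gate's plasmids were PCR-amplified and Illumina-sequenced, and reads were matched to strains by barcodes. The protein stability index is derived by multiplying each gate's read frequency by its gate number and summing the results.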
With GKGRQSAKAELEKLVDH [PRE10] the protein stability index was 2.19 ± 0.072.
For GKHSIGLIWYLLAREVL [RPS0A], the protein stability index was 1.87 ± 0.064.

Same assay, conditions: san1∆
With FKSSVEMGKTDKSTKTA [YOR098C/NUP1] the protein stability index was 3.24 ± 0.05.
With FKSYATRTVITDWDPQF [SMC2] the protein stability index was 2.72 ± 0.12.
Work on FKVYEPLLLVGLDKFSN [RPS16A] yielded a protein stability index of 1.85 ± 0.074.
In the case of FLEKEKQLTLLRSKLFQ [SMC4], the protein stability index is reported as 1.86 ± 0.12.
In the case of FLFQNINFERIDEVFSW [GRR1], the protein stability index is reported as 2.47 ± 0.056.
FLKHNGEEDAVDLLLEI [RPN1] showed a protein stability index of 3.24 ± 0.072.
For FLLSAMTMASKSLEVVN [NSL1], the protein stability index was 1.54 ± 0.15.
FLLTQSKVSIEQRKEAA [RPN7] gave a protein stability index of 2.42 ± 0.088.
In the case of FLQELLKKVQQQQQAAA [SWI1], the protein stability index is reported as 2.47 ± 0.1.
With FLQRIDFQIDGNIFELL [RRI2] the protein stability index was 2.37 ± 0.07.
In the case of FLQSVDITGIRDVSDDV [GRR1], the protein stability index is reported as 1.89 ± 0.055.
In the case of FLRTQFLKLYVLVKWTR [RGR1], the protein stability index is reported as 1.63 ± 0.11.
With FLTNYNVRMDTMANILY [RPB2] the protein stability index was 3.48 ± 0.1.
Sequence FLVEYEGQENNYNSTSR [SIR4] has a protein stability index of 2.29 ± 0.1.
In the case of FMDEIDSIGSTRVEGSG [RPT6], the protein stability index is reported as 2.84 ± 0.069.
FMEIVLEYNVALNDVYL [YML031W/NDC1] gave a protein stability index of 2.22 ± 0.11.
With FMLRKQDPKTLVALLSR [SSN2] the protein stability index was 1.85 ± 0.079.
FMNDAAADVSAVDAKQL [YML103C/NUP188] showed a protein stability index of 3.06 ± 0.091.
For FNFGGKSDTVTSASQPF [YOR098C/NUP1], the protein stability index was 2.07 ± 0.071.
With FNGIENQSAYEWNGKSF [ISW2] the protein stability index was 3.31 ± 0.076.
Sequence FNLNLPPSSFGRSHTRN [REC8] has a protein stability index of 3.04 ± 0.058.
In the case of FNQEGDYNFKYGIPLEF [PRP8], the protein stability index is reported as 1.92 ± 0.076.
Sequence FNRDNKVSPAAAAKKAL [RPS26B] has a protein stability index of 2.61 ± 0.11.
For FNSVKSFDEWFNTPFAN [SNF2], the protein stability index was 3.43 ± 0.085.
FNTPFANTGGQDKIELS [SNF2] showed a protein stability index of 1.55 ± 0.2.
Sequence FNVHEVPRAALEERFDP [YMR129W/POM152] has a protein stability index of 3.16 ± 0.069.
Sequence FPGDSFPVDPTTPVKLG [RRP40] has a protein stability index of 2.65 ± 0.045.
FPGKPVDVQAPTDDKTL [YOR098C/NUP1] showed a protein stability index of 2.93 ± 0.089.
Sequence FPNGFKNFENGPKKNVF [RPC34] has a protein stability index of 3.21 ± 0.062.
In the case of FPPGVIGIDEGSDEAYV [RPC40], the protein stability index is reported as 3.29 ± 0.077.
In the case of FPRNGKAPEAEQVLSAA [RPL13A], the protein stability index is reported as 3.13 ± 0.1.
Work on FQAQQAQQAQQAQQAQQ [SNF2] yielded a protein stability index of 2.85 ± 0.035.
In the case of FQIDNDNIRYATALQTC [SMC2], the protein stability index is reported as 1.45 ± 0.073.
Sequence FQKAQGSYAGHRKHIAV [YCG1] has a protein stability index of 2.29 ± 0.22.
Sequence FQNLELETEQLSSELDS [SMC2] has a protein stability index of 1.55 ± 0.14.
Sequence FQSVQLNINNPNFLIMQ [SMC2] has a protein stability index of 1.75 ± 0.062.
Work on FRHFIGIKAKHDKNIQK [ISW2] yielded a protein stability index of 2.48 ± 0.06.
Work on FRPIEIFTDFLPSSNGS [RRP42] yielded a protein stability index of 3.09 ± 0.056.
FSAPIRPDIVHTVFTSV [RPL4A] gave a protein stability index of 1.73 ± 0.094.
FSEVYEYNRLKVQDAIE [LIN1] gave a protein stability index of 3.04 ± 0.076.
With FSFGGTQTGQNTGPSTG [YGL172W/NUP49] the protein stability index was 3.18 ± 0.1.
FSFGKSDAAKEPPGSNT [YOR098C/NUP1] gave a protein stability index of 2.84 ± 0.13.
With FSMGHIRSSSVSLVAEA [MED4] the protein stability index was 1.31 ± 0.14.
For FSPDGHIFQVEYALEAV [PRE6], the protein stability index was 3.1 ± 0.035.
FSQTVADNNDLQESINH [ECM29] showed a protein stability index of 3.02 ± 0.047.
In the case of FSRHAQQQTSTFNSKPV [SIR4], the protein stability index is reported as 2.07 ± 0.076.
For FSSSVSLSYMAFPNASK [RRP40], the protein stability index was 1.65 ± 0.12.
FSYFFESFESYHNLTTH [RPN6] gave a protein stability index of 2.85 ± 0.084.
Sequence FTICLNDRNPRLNENKK [CSN12] has a protein stability index of 3.11 ± 0.043.
FTLLDFKKQMQTIMKMG [SRP54] gave a protein stability index of 1.42 ± 0.17.
Work on FTNPSVDIQIINQYQLL [SWI1] yielded a protein stability index of 1.43 ± 0.11.
FTYNKFLLNQNKQLSQS [YIL149C/MLP2] showed a protein stability index of 3.15 ± 0.06.
In the case of FVHSVKKFLRVRIFTKI [SRB4], the protein stability index is reported as 1.22 ± 0.12.
Sequence FVNGVATSFSRKKARTF [FAS2] has a protein stability index of 1.22 ± 0.23.
Sequence FVPVPALSAYHKVQTKL [RPS7B] has a protein stability index of 2.27 ± 0.057.
FVQLCEMGYLIQISKLH [RPC82] gave a protein stability index of 1.77 ± 0.1.
FVSRIPIMFQDFDDSTA [IRR1] showed a protein stability index of 1.69 ± 0.053.
In the case of FVTQFRHLRRTGKVSEF [RET1], the protein stability index is reported as 3.07 ± 0.093.
FYKLNMPDEFNTLYTAI [SRP72] gave a protein stability index of 2.66 ± 0.034.
Sequence FYQGKTGVVYNVTKSSV [RPL21A] has a protein stability index of 2.42 ± 0.086.
Work on FYSTNSQYFKFKNDFNS [RPN9] yielded a protein stability index of 2.1 ± 0.094.
Work on GAKPAGSTGGLGASFGQ [YGL172W/NUP49] yielded a protein stability index of 3.22 ± 0.11.
For GASINSMKANTSTNPNG [ARP7], the protein stability index was 2.74 ± 0.067.
GASVISLTKDKSIRKDT [SIR4] gave a protein stability index of 3.06 ± 0.076.
With GCDENDSTVNKSITLKG [YDL088C/ASM4] the protein stability index was 3.32 ± 0.06.
GCEANIHSLVKQRLDLA [YIL149C/MLP2] showed a protein stability index of 3.05 ± 0.062.
GDNEYITLRTSGELLQG [MCD1] gave a protein stability index of 3.16 ± 0.097.
For GDTVQFAEYIQANIQLY [PRE1], the protein stability index was 2.2 ± 0.064.
For GDYNNTVYSSEQYIQEL [SMC3], the protein stability index was 3.22 ± 0.074.
GDYVAYQLNGVAPFMIK [YMR129W/POM152] gave a protein stability index of 1.66 ± 0.17.
For GEDFMEVDYEDKDNPVD [SRB4], the protein stability index was 3.46 ± 0.15.
GEINKICMESLFLEPSW [PCI8] showed a protein stability index of 2.03 ± 0.12.
With GEKKVGSNGELFGGRHY [SWP82] the protein stability index was 3.73 ± 0.12.
GELRDYIEDFLLVIGGN [YJR042W/NUP85] showed a protein stability index of 2.65 ± 0.08.
Work on GEMERDCMIAHGAASFL [RPB2] yielded a protein stability index of 3.04 ± 0.073.
In the case of GENVFLKRISDGLSFGK [SIR3], the protein stability index is reported as 3.42 ± 0.075.
In the case of GEVLGITRFGLSKMRDS [RPO31], the protein stability index is reported as 3.19 ± 0.075.
For GFIENCNGSALVEARSL [MTR3], the protein stability index was 2.23 ± 0.12.
With GFIFTSMILEAISTDKI [RRI2] the protein stability index was 1.26 ± 0.13.
Sequence GGCDYIFSLLTGYPDEP [CYT1] has a protein stability index of 2.77 ± 0.081.
GGFEDVEEYTWSSLLNE [RPB2] showed a protein stability index of 3.12 ± 0.085.
Work on GGFEYFLQPLLLVGLIK [NUT1] yielded a protein stability index of 1.37 ± 0.11.
For GGLGLNLQTADTVIIFD [SNF2], the protein stability index was 3.34 ± 0.13.
In the case of GGNGPEDFQQHEQIRRK [RPO26], the protein stability index is reported as 3.09 ± 0.089.
Work on GGVGSMGAINNNIPSLT [SNF6] yielded a protein stability index of 3.39 ± 0.072.
In the case of GHTLINNYKDLLAVAIA [RPP0], the protein stability index is reported as 1.31 ± 0.17.
For GIFIKILNDSLIYHLKD [IRR1], the protein stability index was 1.69 ± 0.068.
GIGGDHAKFSPVSTASY [RPC40] showed a protein stability index of 2.28 ± 0.098.
For GIIVAVDSRATAGNWVA [PRE2], the protein stability index was 1.24 ± 0.13.
In the case of GIKVSLLGIFDDIFIPQ [RPC25], the protein stability index is reported as 2 ± 0.18.
With GILGNKAQAKMDKRAKN [RPL8A] the protein stability index was 3.41 ± 0.057.
GILLLDSLIQLANRSKE [YJL039C/NUP192] showed a protein stability index of 1.64 ± 0.099.
Work on GINKNEEYRKQLDKKNE [SMC1] yielded a protein stability index of 2.3 ± 0.082.
Sequence GIRVQDSVILASSKAVT [PRE1] has a protein stability index of 2.46 ± 0.068.
GITAVHVKIRATGGTRT [RPS14B] gave a protein stability index of 1.57 ± 0.11.
Work on GIVETNRPDNKNAQYHL [RPN7] yielded a protein stability index of 3.4 ± 0.069.
In the case of GKALVHHYEECAERVKI [QCR6], the protein stability index is reported as 3.25 ± 0.073.
In the case of GKETIARVTGGMKVKAD [RPS14B], the protein stability index is reported as 1.85 ± 0.11.
With GKGRQSAKAELEKLVDH [PRE10] the protein stability index was 1.59 ± 0.28.
For GKHSIGLIWYLLAREVL [RPS0A], the protein stability index was 1.65 ± 0.1.
